One series addresses T1, cyclin D1 (UniProt P25322 1-295).
T1 construct: Immunoprecipitated from NIH 3T3 lysates
The series can be described thus: co-immunoprecipitation and immunoblotting, NIH 3T3 cell lysates. The protocol: (§1) TBS was Tris-buffered saline containing 0.1% (w/v) sodium dodecyl sulfate. Samples were pre-cleared with Protein-G beads (GIBCO, Grand Island, N.Y.) and either normal rabbit or mouse serum (each at a 1:1000 dilution). Immunoprecipitation of cyclin D1 was carried out for 12 hours at 4° C. Immune complexes were precipitated using 1 to 5 micrograms of antibody and Protein-G agarose, and were then heated at 95° C. for 5 minutes in IP buffer, which comprised 93 millimolar Tris, 3% (w/v) SDS, 1.1 millimolar β-mercaptoethanol, 0.03% (w/v) bromophenol blue (BPB), and 15% (v/v) glycerol (SIGMA, Saint Louis, Mo.) at a pH of 6.8. The eluant was analyzed using a denaturing, reducing SDS-PAGE gel, and the contents of the gel were transferred to supported nitrocellulose filter by electroblotting. Filters were incubated with 1 to 5 micrograms of an antibody which binds specifically with one of the following: cyclin D1, cdk4, cdk6, PCNA, and p21. Horseradish peroxidase-linked anti-mouse or anti-rabbit whole antibody was used as a secondary antibody. Chemiluminescence was detected using an ECL™ kit (Amersham Life Science, Arlington Heights, Ill.) according to the manufacturer's instruction.
(§2) An increased level of cyclin D1 protein was detected by immunoprecipitation in lysates from NIH 3T3 cells transfected with PCMV-MCT-1, relative to asynchronously grown control cells which were not transfected or which were transfected with control vector. Because cdk4 and cdk6 associate with cyclin D1 during cell cycle progression, complex formation among these molecules was investigated using co-immunoprecipitation analysis. Increased subunit complex formation in NIH 3T3 cells constitutively expressing MCT-1, relative to cells which were not transfected with a vector encoding MCT-1. Physical interaction of PCNA with cyclin D1-cdk4/cdk6 complexes was also investigated. Co-immunoprecipitation of cyclin D1 and PCNA was detected at an increased level, relative to cells which were not transfected with a vector encoding MCT-1. Direct physical interaction was not detected between MCT-1 and any of proteins cyclin D1, cdk4, cdk6, and PCNA under these assay conditions.
Background: A western blot detects proteins with antibodies after separation by electrophoresis.

The next series has as its target T2, cdk4 (UniProt P30285 2-303).
T2 sequence (looked up): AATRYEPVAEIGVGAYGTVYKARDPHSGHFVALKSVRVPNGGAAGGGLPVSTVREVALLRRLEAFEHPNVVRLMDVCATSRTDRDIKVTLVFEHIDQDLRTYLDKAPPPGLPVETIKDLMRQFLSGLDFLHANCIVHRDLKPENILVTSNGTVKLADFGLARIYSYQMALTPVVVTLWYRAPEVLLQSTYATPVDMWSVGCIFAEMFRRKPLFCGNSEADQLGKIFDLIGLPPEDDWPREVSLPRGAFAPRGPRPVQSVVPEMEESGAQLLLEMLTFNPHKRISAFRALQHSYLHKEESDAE
The description is as above. On the procedure:
as §1, §2

The next series addresses PCNA (UniProt P17918 1-261). The series is described as above. On the procedure:
as §1, §2

For a further series, the target named is cdk6 (UniProt Q64261 1-326). The series is described as above. On the procedure: as §1, §2
Series [1] has as its target GST-RB (source of Rb protein substrate).

T1 sequence (P25322 whole entry): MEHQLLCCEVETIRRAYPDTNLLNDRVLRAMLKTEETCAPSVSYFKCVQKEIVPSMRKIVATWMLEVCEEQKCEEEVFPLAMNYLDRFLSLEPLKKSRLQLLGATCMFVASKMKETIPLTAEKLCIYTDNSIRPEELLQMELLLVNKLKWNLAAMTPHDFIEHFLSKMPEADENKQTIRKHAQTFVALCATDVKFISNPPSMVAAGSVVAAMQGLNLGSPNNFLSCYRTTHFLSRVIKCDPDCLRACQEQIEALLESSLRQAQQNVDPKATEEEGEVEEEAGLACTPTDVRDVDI
Sequence of PCNA (P17918 whole entry): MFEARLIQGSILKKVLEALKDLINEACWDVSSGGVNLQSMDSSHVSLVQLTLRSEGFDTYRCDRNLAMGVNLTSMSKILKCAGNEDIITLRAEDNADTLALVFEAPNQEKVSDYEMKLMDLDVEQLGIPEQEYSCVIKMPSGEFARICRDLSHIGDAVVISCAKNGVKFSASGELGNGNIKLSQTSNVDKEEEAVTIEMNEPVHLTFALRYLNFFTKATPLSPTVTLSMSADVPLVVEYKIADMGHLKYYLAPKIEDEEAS

B1: MCT-1 (Multiple Copies in T-cell malignancy) protein (other)
chain: MFKKFDEKENVSNCIQLKTSVIKGIKNQLIEQFPGIEPWLNQIMPKKDPVKIVRCHEHIEILTVNGELLFFRQREGPFYPTLRLLHKYPFILPHQQVDKGAIKFVLSGANIMCPGLTSPGAKLYPAAVDTIVAIMAEGKQHALCVGVMKMSAEDIEKVNKGIGIENIHYLNDGLWHMKTYK
notes: Expressed from the full length MCT-1 cDNA (pCMV-MCT-1) in stably transfected NIH 3T3 fibroblasts and tested in cell lysates
In the case of B1, the binding result in the series with cyclin D1, in the series with cdk4, with PCNA and with cdk6 was “no binding” in each case.

B2: cdk4 (protein)
chain: AATRYEPVAEIGVGAYGTVYKARDPHSGHFVALKSVRVPNGGAAGGGLPVSTVREVALLRRLEAFEHPNVVRLMDVCATSRTDRDIKVTLVFEHIDQDLRTYLDKAPPPGLPVETIKDLMRQFLSGLDFLHANCIVHRDLKPENILVTSNGTVKLADFGLARIYSYQMALTPVVVTLWYRAPEVLLQSTYATPVDMWSVGCIFAEMFRRKPLFCGNSEADQLGKIFDLIGLPPEDDWPREVSLPRGAFAPRGPRPVQSVVPEMEESGAQLLLEMLTFNPHKRISAFRALQHSYLHKEESDAE
As for B2, the “in vitro immune complex kinase assay (32P phosphorylation of Rb protein)” value in series [1] is “A markedly increased ability to phosphorylate Rb protein”.

B3: cdk6 (protein)
chain: MEKDSLSRADQQYECVAEIGEGAYGKVFKARDLKNGGRFVALKRVRVQTSEEGMPLSTIREVAVLRHLETFEHPNVVRLFDVCTVSRTDRETKLTLVFEHVDQDLTTYLDKVPEPGVPTETIKDMMFQLLRGLDFLHSHRVVHRDLKPQNILVTSSGQIKLADFGLARIYSFQMALTSVVVTLWYRAPEVLLQSSYATPVDLWSVGCIFAEMFRRKPLFRGSSDVDQLGKILDIIGLPGEEDWPRDVALPRQAFHSKSAQPIEKFVTDIDELGKDLLLKCLTFNPAKRISAYGALNHPYFQDLERYKDNLNSHLPSNQSTSELNTA
Take B3: the “in vitro immune complex kinase assay (32P phosphorylation of Rb protein)” value in series [1] was “A markedly increased ability to phosphorylate Rb protein”.
